In patent US20200147199A1 one finds Kd data, which are given here for 2 substances.

Some targets named below: Human FcRn; Human FcγRIIIaV158; Human FcγRIIaH131; Human FcγRIIb; NHP FcγRIII; NHP FcγRIIa; NHP FcγRIIb.
Experiment in all cases: SPR
A general note: Surface plasmon resonance follows binding to a sensor surface in real time, without labels.

One may read the Kd as a measure of binding affinity in units of concentration. Lower therefore signals a tighter complex. In the case of GRLR, the Kd in the assay with Human FcRn amounted to 0.0224 µM.

Turning to LS, the Kd in the assay with Human FcRn is 0.00476 µM; in the assay with Human FcγRIIIaV158, 0.233 µM; with Human FcγRIIaH131, 2.09 µM; with Human FcγRIIb it was 6.38 µM; with NHP FcγRIII, 0.424 µM; with NHP FcγRIIa it was 7.97 µM. Moreover, the Kd with NHP FcγRIIb came to 2.69 µM.
